Tested on: human multiple myeloma cell line U266
Test: Combination with melphalan, cell survival (ATPlite)
Assay type: cell-based
Settings: U266 / U266B1
Method: FIG. 9. […] U266 cells are insensitive to CPT. At the concentration of 1 μg/ml, NCPT-1.M1 alone has a mild killing effect on U266 (<20%), but with the presence of melphalan (12.5˜50 μg/ml), both of them can cause enhanced killing effect. The cell viability was assayed with ATPlite luminescent system (PerkinElmer), the data as shown in this figure are all represented as the mean±standard deviation, n=4, #P<0.05, ##P<0.01 vs. melphalan group; *P<0.05 vs. NCPT-1.M1 group.

B1: CPT: recombinant human circularly permuted TRAIL: amino acids 135-281, a linker, amino acids 122-135; SEQ ID NO: 1 (protein)
chain: TLSSPNSKNEKALGRKINSWESSRSGHSFLSNLHLRNGELVIHEKGFYYIYSQTYFRFQEEIKENTKNDKQMVQYIYKYTSYPDPILLMKSARNSCWSKDAEYGLYSIYQGGIFELKENDRIFVSVTNEHLIDMDHEASFFGAFLVGGGGGGVAAHITGTRGRSNT
modifications: CPT polypeptide sequence
sensitivity of the cell line: insensitive
